Tests used:
[1] = molecular target: T1, hCTLA-4.ECD.hFc-Biotin (human, UniProt P16410 36-161, biotinylated (sites not given)); test: FACS competition, hCTLA-4.ECD.hFc-Biotin on CD86-expressing CHO cells
T1 construct: extracellular domain; also called Biotinylated CTLA-4.ECD.hFc; biotinylated human CTLA4.ECD.hFc; not shown: human Fc tag (hFc)
T1 sequence (looked up): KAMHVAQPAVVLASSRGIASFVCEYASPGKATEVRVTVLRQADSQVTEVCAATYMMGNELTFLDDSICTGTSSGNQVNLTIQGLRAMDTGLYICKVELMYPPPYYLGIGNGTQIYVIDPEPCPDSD
Description: (§1) PE conjugated Streptavidin was purchased from eBioscience (Catalog number 12-4317).
(§2) Then the mixtures of antibody and CTLA-4 were added to the cells and incubated for 1 hour at 4° C. The cells were washed two times with 200 μL FACS buffer (DPBS containing 1% BSA). Streptavidin PE 1 to 333 diluted in FACS buffer was added to the cells and incubated at 4° C. for 1 hour. Additional washing steps were performed two times with 200 μL FACS buffer followed by centrifugation at 1500 rpm for 4 minutes at 4° C. Finally, the cells were resuspended in 100 μL FACS buffer and fluorescence values were measured by flow cytometry and analyzed by FlowJo.

[2] = molecular target: T2, cynomolgus monkey CTLA-4 ECD-6×His (cynomolgus monkey); test: ELISA, coated cynomolgus monkey CTLA-4.ECD-6×His
T2 construct: extracellular domain; Bought; also called cynomoguls monkey CTLA-4.ECD-6×His
Description: ELISA was used to test binding of anti-human CTLA-4 antibodies to human, murine and cynomolgus monkey CTLA-4 protein. A 96-well plate was coated with human CTLA-4.ECD-6×His (1.0 μg/mL), cynomoguls monkey CTLA-4.ECD-6×His (0.5 μg/mL) or mouse CTLA-4.ECD-6×His (0.5 μg/mL) at 4° C. for 16-20 hours. After 1 hour blocking with 2% BSA in DBPS, testing antibodies, as well as positive and negative control antibodies were added to the plates and incubated at room temperature for 1 hour. The binding of the antibodies to the plates were detected by HRP-conjugated goat anti-human IgG antibody (1:5000 dilution) with 1 hour incubation. The color was developed by dispensing 100 μL of TMB substrate for 8 mins, and then stopped by 100 μL of 2N HCl.

[3] = molecular target: T3, full length human CTLA-4 on cells (human, UniProt P16410 36-223); test: FACS on human CTLA4 expression 293F cell line
T3 construct: whole, on cells; also called CTLA-4-expressing cell line
T3 sequence (looked up): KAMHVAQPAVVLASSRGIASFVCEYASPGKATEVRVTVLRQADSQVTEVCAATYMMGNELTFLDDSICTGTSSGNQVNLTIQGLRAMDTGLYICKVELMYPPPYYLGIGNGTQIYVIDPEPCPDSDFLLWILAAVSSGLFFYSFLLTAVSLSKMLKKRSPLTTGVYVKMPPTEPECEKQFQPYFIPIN
Description: A number of 1×10⁵ cells per well was added to each well of a 96-well plate and centrifuged at 1500 rpm for 4 minutes at 4° C. before removing the supernatant. Serial dilutions of test antibodies, positive and negative controls were added to the resuspended cells and incubated for 1 hour at 4° C. The cells were washed two times with 200 μL DPBS containing 1% BSA. PE conjugated goat anti-human IgG (1:100) diluted in DPBS containing 1% BSA was added to the cells and incubated at 4° C. for 1 hour. Additional washing steps were performed two times with 200 μL DPBS containing 1% BSA followed by centrifugation at 1500 rpm for 4 minutes at 4° C. Finally, the cells were resuspended in 100 μL DPBS containing 1% BSA and fluorescence values were measured by flow cytometry and analyzed by FlowJo.

[4] = molecular target: T4, human CTLA-4.ECD.hFc (human, UniProt P16410 36-161); test: competition ELISA, coated human CTLA-4.ECD.hFc, competitor CD80-6×His
T4 construct: extracellular domain; also called hCTLA-4.ECD.hFc; not shown: human Fc tag (hFc)
T4 sequence (looked up): T1 sequence (looked up)
Description: Plates were coated with human CTLA-4.ECD.hFc (0.5 μg/mL) at 4° C. for 16-20 hours. […] After washing three times with PBS containing 0.05% Tween 20, biotinylated anti-His tag antibody was 1:2000 diluted and added. The plates were incubated at room temperature for 1 hour. The bound ligands were detected by HRP conjugated streptavidin (1:20000). The color was developed by dispensing 100 μL of TMB substrate for 8 mins, and then stopped by 100 μL of 2N HCl.

[5] = molecular target: T5, human CTLA-4.ECD-6×His (human, UniProt P16410 36-161); test: SPR, antibody captured on anti-human Fc, CTLA-4.ECD-6×His as analyte, 1:1 fit
T5 construct: extracellular domain; also called WBP316.hCTLA-4.ECD-6×His; hCTLA4-His (WT)
T5 sequence: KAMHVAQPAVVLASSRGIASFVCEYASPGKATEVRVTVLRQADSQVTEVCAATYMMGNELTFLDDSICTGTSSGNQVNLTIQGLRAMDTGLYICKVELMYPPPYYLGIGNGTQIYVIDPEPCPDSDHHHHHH
Description: (§3) Biacore T200, Series S Sensor Chip CMS, Amine Coupling Kit, and 10×HBS-EP were purchased from GE Healthcare. […] In immobilization step, the activation buffer was prepared by mixing 400 mM EDC and 100 mM NHS immediately prior to injection. The CM5 sensor chip was activated for 420 s with the activation buffer. 30 μg/mL of goat anti-human IgG Fcγ antibody in 10 mM NaAc (pH 4.5) was then injected to Fc1-Fc4 channels for 200 s at a flow rate of 5 μL/min. The chip was deactivated by 1 M ethanolamine-HCl (GE). Then the antibodies were captured on the chip. Briefly, 4 μg/mL antibodies in running buffer (HBS-EP+) was injected individually to Fc3 channel for 30 s at a flow rate of 10 μL/min. […] Regeneration buffer (10 mM Glycine pH 1.5) was injected at 10 μL/min for 30 s following every dissociation phase.
(§4) The binding kinetics of these antibodies were measured using SPR. The antibodies were captured on immobilized anti-human Fc and CTLA-4-ECD at different concentration was injected orderly. The sensorgrams for reference channel and buffer channel were subtracted from the test sensorgrams. The data was used for 1:1 binding analysis on human, monkey and mouse CTLA-4.ECD-6×His.

[6] = molecular target: T2, cynomolgus monkey CTLA-4 ECD-6×His; test: as above
Description: as §3, §4

[7] = molecular target: T1, hCTLA-4.ECD.hFc-Biotin; test: FACS competition, hCTLA-4.ECD.hFc-Biotin on CD80-expressing CHO cells
Description: as §1, §2

B1: W3162-1.146.19-z12-uAb.IgG1K (antibody, V domains shown)
VH: QVQLQESGPGLVKPSETLSLTCSVTYHTITSGYDWTWIRKPPGKGMEWIGYISYSGNTNYNPSLKSRVTISRDTSKNQFFLKLSSVTAADTAVYYCASMMVPHYYVMDAWGQGTLVTVSS
VL: DIVMTQTPLSLSVTPGQPASISCRSSQSLLNSDGNTYLYWYLQKPGQSPQLLIYLVSKLGSGVPNRFSGSGSGTDFTLKISRVEAEDVGVYYCVQGTHDPWTFGGGTKVEIK
notes: Humanized; label says IgG1K
Work on B1 yielded an IC50 [1] of 5.15 nM, an EC50 [2] of 0.05 nM and an EC50 [3] of 1.58 nM. It also gave an IC50 [4] of 0.87 nM, a Kd [5] of 0.477 nM and a koff [5] of 9.82e-05 s⁻¹. The kon [5] was 206000 M⁻¹ s⁻¹, the Kd [6] was 1.92 nM and the koff [6] was 0.000331 s⁻¹. The kon [6] was 173000 M⁻¹ s⁻¹ and the IC50 [7] was 6.6 nM.

B2: W3162_1.154.8-z35-uAb.IgG1K (antibody, V domains shown)
VH: QVQLVQSGAEVKKPGSSVKVSCKASGYTFTNYFMNWVRQAPGQGLEWMGRVDPEQGRADYAEKFKKRVTITADKSTSTAYMELSSLRSEDTAVYYCARRAMDNYGFAYWGQGTLVTVSS
VL: EIVLTQSPDFQSVTPKEKVTITCSANSALSYMYWYQQKPDQSPKLWVHGTSNLASGVPSRFSGSGSGTDFTLTINSLEAEDAATYYCHHWSNTQWTFGGGTKVEIK
notes: Humanized; label says IgG1K
B2 showed an IC50 [1] of 0.28 nM, an EC50 [2] of 0.05 nM and an EC50 [3] of 0.66 nM. It also gave an IC50 [4] of 0.63 nM, a Kd [5] of 0.0968 nM and a koff [5] of 0.000119 s⁻¹. It also gave a kon [5] of 1.23e+06 M⁻¹ s⁻¹, a Kd [6] of 0.131 nM and a koff [6] of 0.000122 s⁻¹. It also gave a kon [6] of 932000 M⁻¹ s⁻¹ and an IC50 [7] of 0.07 nM.
